Measured values taken from publication PMC8185224 (EBioMedicine, 2021).

Biological target: the molecule itself
Test: SEC; Superdex75 column in 20 mM sodium phosphate buffer, pH 8.0; last step of the purification

B1: recombinant murine D-dopachrome tautomerase (natural protein, UniProt O35215 1-118, looked up)
chain: MPFVELETNLPASRIPAGLENRLCAATATILDKPEDRVSVTIRPGMTLLMNKSTEPCAHLLVSSIGVVGTAEQNRTHSASFFKFLTEELSLDQDRIVIRFFPLEAWQIGKKGTVMTFL
notes: D-dopachrome tautomerase (DDT), murine; also called rmDDT; murine DDT; source: E. coli BL21(DE3), pET20b(+), purified (Q sepharose, phenyl sepharose, Superdex75 SEC)
stoichiometry N: 3

B2: recombinant human D-dopachrome tautomerase (natural protein, UniProt P30046 1-118, looked up)
chain: MPFLELDTNLPANRVPAGLEKRLCAAAASILGKPADRVNVTVRPGLAMALSGSTEPCAQLSISSIGVVGTAEDNRSHSAHFFEFLTKELALGQDRILIRFFPLESWQIGKIGTVMTFL
notes: D-dopachrome tautomerase (DDT), human; The protein was active as a tautomerase, so the initiator methionine is probably removed (surmise); also called rhDDT; DDT; source: E. coli BL21(DE3), pET20b(+), purified (Q sepharose, phenyl sepharose, Superdex75 SEC)
stoichiometry N: 3
